This note sets out measurements from patent US20250257130A1 (NONA BIOSCIENCES SUZHOU, published 2025).

Usually EC50 (read off the curve) stands for the concentration giving half of the maximal effect.

Experiment [1] addresses T1, human ROR1 on cells (HEK293T-hROR1, PANC-1, A549) (human, UniProt Q01973 30-937).
T1 construct: whole, on cells; one molecule for the three cell lines; also called huROR1; cell surface ROR1
Briefly: flow cytometry on PANC-1 cells, MFI (APC-A Median). The protocol:
(§1) Binding of recombinant anti-ROR1 antibodies to human or cynomolgus ROR1-overexpressing cells was tested by flow cytometry. In this example, ROR1-expressing cell lines are HEK293T cell lines that had been transfected to express human ROR1 on the surface (HEK293T-hu ROR1, KYINNO BIOTECHNOLOGY CO., LTD, Catalog #KC-1018), CHO-K1 cell lines that had been transfected to express cynomolgus ROR1 (CHOK1-cyno ROR1), PANC-1 (ATCC, catalog: CRL-1469) or A549 cell lines (Shanghai Institute of Biochemistry and Cell Biology, Chinese Academy of Sciences).
(§2) In brief, anti-ROR1 antibodies were serially diluted in staining buffer (PBS containing 2% FBS). Antibody solution was incubated with 1×10⁵ cells at 4° C. for 1 hour. […] After 1-hour incubation at 4° C., cells were washed twice with staining buffer and subjected to flow cytometry. PR000374 (Bench marker 1) and non-relevant IgG isotype control (Crownbio) were used as positive and negative controls, respectively.
For orientation: A flow cytometer gives signals particle by particle.

Experiment [2] deals with T2, Human ROR1-ECD-his (Acro Biosystems RO1-H522y) (human, UniProt Q01973 30-406).
T2 construct: extracellular domain; bought protein; also called hROR1-ECD-his; hu-ROR1-ECD-his
T2 sequence (Q01973 30-406): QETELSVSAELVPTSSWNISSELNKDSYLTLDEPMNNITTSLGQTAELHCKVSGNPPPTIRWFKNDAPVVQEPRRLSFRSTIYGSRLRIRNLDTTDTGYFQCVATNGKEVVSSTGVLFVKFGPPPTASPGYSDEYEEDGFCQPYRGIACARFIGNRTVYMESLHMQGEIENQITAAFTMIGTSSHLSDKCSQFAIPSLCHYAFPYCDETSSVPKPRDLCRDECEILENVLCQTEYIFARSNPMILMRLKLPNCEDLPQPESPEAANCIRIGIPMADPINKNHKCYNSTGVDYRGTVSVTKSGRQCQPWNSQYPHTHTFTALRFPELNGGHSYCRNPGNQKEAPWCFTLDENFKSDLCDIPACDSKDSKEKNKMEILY
As to the kind of experiment: BLI in-tandem, row = 1st Ab; competitor (2nd Ab): PR005338. An excerpt: (§3) To determine if anti-ROR1 antibodies bind to human ROR1 on different or approximate binding epitopes, the ForteBio Octet® RED96e platform was used to perform epitope competition experiments on the anti-ROR1 antibodies. Human ROR1 protein (Acrobiosystems, #RO1-H522y) was biotinylated and then captured onto SA biosensors (ForteBio, #18-5020) to reach loading level of 0.3-0.4 nm. The in-tandem competition assay format was applied and it contains two association steps. Firstly, the antigen-loaded biosensors bind to each antibody (a.k.a, First antibody, 1st Ab) with a saturating concentration of 200 nM for 180 seconds to reach equilibrium and then secondly bind to the competing antibodies (a.k.a, Second antibody, 2nd Ab) of 200 nM for 180 seconds. The second binding signals were recorded as the 100% signal of each antibody when the first antibodies were replaced by kinetics buffer. All the binding data were analyzed using ForteBio Data Analysis 11.0 software. The inhibition rate is calculated by the following formula: […]

Experiment [3] deals with T2, Human ROR1-ECD-his (Acro Biosystems …). As to the kind of experiment: BLI in-tandem, row = 1st Ab; competitor (2nd Ab): PR007417.
Description: as §3

For experiment [4] the target is unchanged. Briefly: BLI in-tandem, row = 1st Ab; competitor (2nd Ab): PR000374.
Description: as §3

Experiment [5] has as its target T1, human ROR1 on cells (HEK293T-hROR1, …). Briefly: flow cytometry on PANC-1 cells, MFI (FITC-A Median). The protocol:
as §1, §2

T1 sequence (Q01973 30-937): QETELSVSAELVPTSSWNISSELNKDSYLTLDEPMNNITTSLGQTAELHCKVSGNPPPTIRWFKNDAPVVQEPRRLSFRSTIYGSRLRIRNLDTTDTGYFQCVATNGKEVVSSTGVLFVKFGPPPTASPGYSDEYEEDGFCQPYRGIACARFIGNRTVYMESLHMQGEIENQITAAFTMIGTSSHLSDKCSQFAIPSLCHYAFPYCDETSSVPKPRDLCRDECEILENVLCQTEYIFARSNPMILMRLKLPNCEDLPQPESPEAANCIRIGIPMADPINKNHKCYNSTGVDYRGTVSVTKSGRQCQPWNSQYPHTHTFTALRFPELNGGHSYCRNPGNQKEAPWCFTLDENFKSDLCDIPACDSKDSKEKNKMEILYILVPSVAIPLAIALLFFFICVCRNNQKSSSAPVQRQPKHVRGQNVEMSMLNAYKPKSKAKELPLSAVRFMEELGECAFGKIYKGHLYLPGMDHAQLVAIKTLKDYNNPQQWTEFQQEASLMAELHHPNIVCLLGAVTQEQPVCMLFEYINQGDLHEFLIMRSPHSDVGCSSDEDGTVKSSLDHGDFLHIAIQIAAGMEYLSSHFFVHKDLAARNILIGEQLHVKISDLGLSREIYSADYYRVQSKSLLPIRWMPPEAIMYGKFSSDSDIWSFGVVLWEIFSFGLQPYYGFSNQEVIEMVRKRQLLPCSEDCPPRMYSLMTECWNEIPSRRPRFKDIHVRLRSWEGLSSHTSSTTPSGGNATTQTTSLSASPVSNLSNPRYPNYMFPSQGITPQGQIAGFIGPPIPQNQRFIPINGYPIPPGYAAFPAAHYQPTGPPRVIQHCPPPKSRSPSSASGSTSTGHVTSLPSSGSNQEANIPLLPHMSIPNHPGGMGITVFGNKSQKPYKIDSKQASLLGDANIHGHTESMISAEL

B1: PR000374 (antibody, human IgG1, kappa, V domains shown)
VH: EVQLVESGGGLVQPGRSLRLSCTASGSDINDYPITWVRQAPGQGLEWIGFINSGGSTWYASWVKGRFTISRDDSKSIAYLQMNSLKTEDTAVYYCARGYSTYYRDFNIWGQGTLVTVSS
VL: DIQMTQSPSSLSASVGDRVTINCQASQSIDSNLAWFQQKPGQPPKLLIYRASNLASGVPDRFSGSGSGTDFTLTISSLEAEDVATYYCLGGVGAVSYRTSFGGGTKVEIKR
notes: positive control; also called Bench marker 1
In the case of B1, the results for the “EC50 (read off the curve)” value in experiment [1] and in experiment [5] were roughly 5 nM and roughly 8 nM, respectively. Besides, the “Inhibition (%)” value in experiment [2] was -7.76%; in experiment [3] it was -10.5%; in experiment [4], 111%.
